Source: the supplement of paper PMC10567573

Assay: protein stability index of a GFP-peptide fusion (GPS, HEK-293T) (PSI 1-6); higher = more stable
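Also: lentivirally expressed fusions sorted by FACS into six bins by GFP to DsRed ratio, PSI derived from sequencing read proportions per bin multiplied by bin number.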

**Q.** With FPSAGQAQAAVQGPVGTDFKPLNS as the protein, how does the protein stability index (parent: IOH3584_46, c terminus: a fixed tail appended) read?
**A.** Its protein stability index is 3.51.

**Q.** With IRRAYPDANLLNDRVLRAMLKAEE as the protein, how does the protein stability index (parent: IOH1962_3, c terminus: a fixed tail appended) read?
**A.** Its protein stability index is 2.62.

**Q.** For AAGGVPGGGSNNGKTPVCHQCHKV [PDLIM7 WT], which protein stability index (parent: IOH4706_45, c terminus: a fixed tail appended) is on record?
**A.** The protein stability index was 2.61.

**Q.** With DLSRLVNCLTGEGEDTRLSASEMK [CIB1 WT] as the protein, how does the protein stability index (parent: IOH3143_22, c terminus: a fixed tail appended) read?
**A.** The protein stability index was 3.05.

**Q.** Which protein stability index (parent: IOH5080_24, c terminus: a fixed tail appended) does the source give for FVKDPQGRIIAVFKPKNEEPYGHL [PI4K2A WT] here?
**A.** The protein stability index was 1.76.

**Q.** With YVERKNSLKKGSLVKNLKDTLGLG as the protein, how does the protein stability index (parent: IOH4659_10, c terminus: a fixed tail appended) read?
**A.** Its protein stability index is 2.21.

**Q.** Which protein stability index (parent: IOH3247_29, c terminus: a fixed tail appended) does the source give for YVTTNVSLIPPRSEQLVNFTGKAE here?
**A.** The protein stability index was 1.77.

**Q.** With FTGRDSITCLTCQGTGYIPTEQVN as the protein, how does the protein stability index (parent: IOH3247_8, c terminus: a fixed tail appended) read?
**A.** The protein stability index was 1.83.

**Q.** Which protein stability index (parent: IOH4655_56, c terminus: native) does the source give for HIFPASRWEPYDPEKKWDKYTIR here?
**A.** The protein stability index was 2.29.

**Q.** For SEQLVNFTGKAEMGGPFSYVYFFC, which protein stability index (parent: IOH3247_31, c terminus: a fixed tail appended) is on record?
**A.** The protein stability index was 2.53.

**Q.** For KSQDLAKIMADIRAQYDELARKNR, which protein stability index (parent: IOH2946_41, c terminus: a fixed tail appended) is on record?
**A.** The protein stability index was 2.6.

**Q.** Which protein stability index (parent: IOH4008_14, c terminus: a fixed tail appended) does the source give for FGEDYYGPSRSRHRRRSRERGPYR [CLK3 WT] here?
**A.** Its protein stability index is 2.64.

**Q.** For EAEEEELRAELTKVEEEIVTLRQV [TPD52L2 WT], which protein stability index (parent: IOH3163_8, c terminus: a fixed tail appended) is on record?
**A.** The protein stability index was 4.06.

**Q.** For LAPIHKLEEALYEYQPLQIETYGP, which protein stability index (parent: IOH3100_40, c terminus: a fixed tail appended) is on record?
**A.** The protein stability index was 1.96.

**Q.** With YNIATRRKALKNPSEEYGKILEVV [MLH1 WT] as the protein, how does the protein stability index (parent: IOH3190_27, c terminus: a fixed tail appended) read?
**A.** The protein stability index was 2.51.

**Q.** With RVRSLETENRRLESKIREHLEKKG as the protein, how does the protein stability index (parent: IOH2946_17, c terminus: a fixed tail appended) read?
**A.** Its protein stability index is 4.39.

**Q.** With FQPQPVQPQQGYIPPMAQPGLPPV as the protein, how does the protein stability index (parent: IOH3584_22, c terminus: a fixed tail appended) read?
**A.** The protein stability index was 3.18.

**Q.** With RRQTSMTDFYHSKRRLIFSKRKP as the protein, how does the protein stability index (parent: IOH5068_25, c terminus: native) read?
**A.** Its protein stability index is 2.54.

**Q.** Which protein stability index (parent: IOH1937_41, c terminus: a fixed tail appended) does the source give for YSLTTSSTHKRSSLRKVKLVRPPQ [RAB40B WT] here?
**A.** Its protein stability index is 2.95.

**Q.** Which protein stability index (parent: IOH3371_20, c terminus: a fixed tail appended) does the source give for YDPDYIQCPYCQRRFNENAADRHI [FAM164A WT] here?
**A.** Its protein stability index is 4.12.

**Q.** Which protein stability index (parent: IOH3100_41, c terminus: a fixed tail appended) does the source give for LEEALYEYQPLQIETYGPHVPELE here?
**A.** The protein stability index was 2.7.

**Q.** For SLREYNDFLEEVEEIVFNLTNNVD, which protein stability index (parent: IOH3100_16, c terminus: a fixed tail appended) is on record?
**A.** Its protein stability index is 2.

**Q.** With AFVVYLETETLVTREAVTEILGIE as the protein, how does the protein stability index (parent: IOH3571_18, c terminus: a fixed tail appended) read?
**A.** Its protein stability index is 2.25.

**Q.** With YQGGPPRPPMGMRPPVMSQGGRY as the protein, how does the protein stability index (parent: IOH3584_75, c terminus: native) read?
**A.** Its protein stability index is 1.94.

**Q.** For RLVYKFGKNSSGWKEEEVLQSRN, which protein stability index (parent: IOH4879_62, c terminus: native) is on record?
**A.** The protein stability index was 2.04.

**Q.** For KKREKQREQMEQMKQRIAEENIMK, which protein stability index (parent: IOH4655_4, c terminus: a fixed tail appended) is on record?
**A.** The protein stability index was 4.67.

**Q.** With QMAKKAEAFQLYQEAAQLDMLLEK [FLOT1 WT] as the protein, how does the protein stability index (parent: IOH4826_57, c terminus: a fixed tail appended) read?
**A.** The protein stability index was 1.75.

**Q.** Which protein stability index (parent: IOH3571_3, c terminus: a fixed tail appended) does the source give for FLAAEQDIREEIRKVVQSLEQTAR here?
**A.** The protein stability index was 1.8.

**Q.** For ANETLAEMEEELRYAPLSFRNPMM, which protein stability index (parent: IOH5143_10, c terminus: a fixed tail appended) is on record?
**A.** The protein stability index was 1.94.

**Q.** With SRHLNSQVKKTTTRWCHIVRDSDS as the protein, how does the protein stability index (parent: IOH4271_53, c terminus: a fixed tail appended) read?
**A.** Its protein stability index is 2.05.

**Q.** Which protein stability index (parent: IOH1870_10, c terminus: a fixed tail appended) does the source give for GGYFKARLKFPIDYPYSPPAFRFL [CDC34 WT] here?
**A.** The protein stability index was 2.41.

**Q.** With KALEILRKDFSELRSAGVEQLMYI as the protein, how does the protein stability index (parent: IOH4655_39, c terminus: a fixed tail appended) read?
**A.** Its protein stability index is 2.56.

**Q.** With GRKRRQTSMTDFYHSKRRLIFSKR as the protein, how does the protein stability index (parent: IOH5068_24, c terminus: a fixed tail appended) read?
**A.** Its protein stability index is 3.14.

**Q.** Which protein stability index (parent: IOH4879_43, c terminus: a fixed tail appended) does the source give for LSKEYWDCLEGKKSKHAPRGTHLW here?
**A.** Its protein stability index is 2.74.

**Q.** For RVKLISNKGTETDNDPSCVHPIIK, which protein stability index (parent: IOH4271_36, c terminus: a fixed tail appended) is on record?
**A.** Its protein stability index is 4.06.

**Q.** With AKQLFRKLNEQSPTRCTLEAGAMT as the protein, how does the protein stability index (parent: IOH3957_7, c terminus: a fixed tail appended) read?
**A.** Its protein stability index is 2.07.

**Q.** Which protein stability index (parent: IOH1962_29, c terminus: a fixed tail appended) does the source give for PEAEENKQIIRKHAQTFVALCATD here?
**A.** The protein stability index was 2.89.

**Q.** For PQVRDWSHYFKIIEDLRAQIFANT, which protein stability index (parent: IOH2946_21, c terminus: a fixed tail appended) is on record?
**A.** The protein stability index was 2.07.

**Q.** Which protein stability index (parent: IOH3453_12, c terminus: a fixed tail appended) does the source give for TCADRDNLTRRFSDLGFEVKCFND [CASP6 WT] here?
**A.** Its protein stability index is 3.21.

**Q.** For EEEDLRRRLKYFFMSPCDKFRAKG [MCOLN1 WT], which protein stability index (parent: IOH4733_7, c terminus: a fixed tail appended) is on record?
**A.** The protein stability index was 2.28.

**Q.** For TVPEILVHNIVIFMRTSVKISYIG, which protein stability index (parent: IOH3247_35, c terminus: a fixed tail appended) is on record?
**A.** Its protein stability index is 3.44.

**Q.** With CHICHKKLYTGPGLAIHCMQVHKE as the protein, how does the protein stability index (parent: IOH3584_7, c terminus: a fixed tail appended) read?
**A.** The protein stability index was 3.29.

**Q.** For YQSKGYNDDYYEESYFTTRTYGEP [EMD WT], which protein stability index (parent: IOH4676_15, c terminus: a fixed tail appended) is on record?
**A.** The protein stability index was 2.23.

**Q.** Which protein stability index (parent: IOH2946_43, c terminus: a fixed tail appended) does the source give for RAQYDELARKNREELDKYWSQQIE here?
**A.** The protein stability index was 3.04.

**Q.** For NKLLLSIIILLELAILGGLVYYKF, which protein stability index (parent: IOH5143_35, c terminus: a fixed tail appended) is on record?
**A.** The protein stability index was 2.46.

**Q.** Which protein stability index (parent: IOH5115_39, c terminus: a fixed tail appended) does the source give for NIVEYLIQEQPGQEQVAGGEAQPG here?
**A.** The protein stability index was 4.27.

**Q.** With YTGPSSSGRFAGREWYYGNVTRHQ as the protein, how does the protein stability index (parent: IOH4659_46, c terminus: a fixed tail appended) read?
**A.** The protein stability index was 1.78.

**Q.** For EAGGRFVAFSGEGQSLRKKGRKP [UFD1L WT], which protein stability index (parent: IOH4744_50, c terminus: native) is on record?
**A.** Its protein stability index is 1.91.

**Q.** For FVELQGFLAAEQDIREEIRKVVQS, which protein stability index (parent: IOH3571_2, c terminus: a fixed tail appended) is on record?
**A.** The protein stability index was 2.08.

**Q.** For PCCSSSPEEPLNGESYESCCPTSR, which protein stability index (parent: IOH5115_46, c terminus: a fixed tail appended) is on record?
**A.** The protein stability index was 3.71.

**Q.** Which protein stability index (parent: IOH4871_15, c terminus: a fixed tail appended) does the source give for THTKEQILELVVLEQFVAILPKEL here?
**A.** Its protein stability index is 2.8.

**Q.** For FPKKLAFAYLEDLHSEFDEQHGKK, which protein stability index (parent: IOH3957_14, c terminus: a fixed tail appended) is on record?
**A.** The protein stability index was 2.61.

**Q.** For YGETCFPKGRFERKRNPSRKKQHI, which protein stability index (parent: IOH4871_39, c terminus: a fixed tail appended) is on record?
**A.** The protein stability index was 2.65.
